# Assay results: the supplement of paper PMC11246515
# ± gives the standard deviation of the averaged measurements.
# Experiment: total protein half-life in vivo (active degradation + dilution); higher = more stable protein
# [1] = E. coli NCM3722 delta-clpP, growth: N-lim chemostat, doubling time 6 h
# [2] = E. coli NCM3722 delta-hslV, growth: N-lim chemostat, doubling time 6 h
# [3] = E. coli NCM3722 delta-lon, growth: N-lim chemostat, doubling time 6 h
# [4] = E. coli NCM3722 delta-smpB, growth: N-lim chemostat, doubling time 6 h
# [5] = wild type E. coli NCM3722, growth: C-lim chemostat, doubling time 3 h
# [6] = wild type E. coli NCM3722, growth: C-lim chemostat, doubling time 6 h
# [7] = wild type E. coli NCM3722, growth: C-lim chemostat, doubling time 12 h
# [8] = wild type E. coli NCM3722, growth: N-lim chemostat, doubling time 6 h
# [9] = wild type E. coli NCM3722, growth: N-lim chemostat, doubling time 12 h
# [10] = wild type E. coli NCM3722, growth: P-lim chemostat, doubling time 6 h
# [11] = wild type E. coli NCM3722, growth: P-lim chemostat, doubling time 12 h
# [12] = E. coli NCM3722 delta-clpP delta-lon delta-hslV, growth: N-lim chemostat, doubling time 6 h
Sequence,total protein half-life in vivo [1],total protein half-life in vivo [2],total protein half-life in vivo [3],total protein half-life in vivo [4],total protein half-life in vivo [5],total protein half-life in vivo [6],total protein half-life in vivo [7],total protein half-life in vivo [8],total protein half-life in vivo [9],total protein half-life in vivo [10],total protein half-life in vivo [11],total protein half-life in vivo [12]
MKKLVLSLSLVLAFSSATAAFAAIPQNIRIGTDPTYAPFESKNSQGELVGFDIDLAKELCKRINTQCTFVENPLDALIPSLKAKKIDAIMSSLSITEKRQQEIAFTDKLYAADSRLVVAKNSDIQPTVESLKGKRVGVLQGTTQETFGNEHWAPKGIEIVSYQGQDNIYSDLTAGRIDAAFQDEVAASEGFLKQPVGKDYKFGGPSVKDEKLFGVGTGMGLRKEDNELREALNKAFAEMRADGTYEKLAKKYFDFDVYGG [P0AEU0],5.99 ± 0.12 h,6.1 ± 0.068 h,6.35 ± 0.24 h,5.88 ± 0.91 h,3.08 ± 0.17 h,6.45 ± 1 h,13.1 ± 0.17 h,5.8 ± 0.59 h,13.9 ± 0.36 h,6.2 ± 0.54 h,14.3 ± 0.77 h,
MKKPLRQQNRQIISYVPRTEPAPPEHAIKMDSFRDVWMLRGKYVAFVLMGESFLRSPAFTVPESAQRWANQIRQEGEVTE [P0AE60],5.19 h,3.87 h,,,,,,3.66 h,6.6 h,4.26 ± 1.1 h,9.35 h,
MKKQRNLRSMAAQAVEQVVEQGQSLSNILPPLQQKVSDKDKALLQELCFGVLRTLSQLDWLINKLMARPMTGKQRTVHYLIMVGLYQLLYTRIPPHAALAETVEGAIAIKRPQLKGLINGVLRQFQRQQEELLAEFNASDARYLHPSWLLKRLQKAYPEQWQSIVEANNQRPPMWLRINRTHHSRDSWLALLDEAGMKGFPHADYPDAVRLETPAPVHALPGFEDGWVTVQDASAQGCMTWLAPQNGEHILDLCAAPGGKTTHILEVAPEAQVVAVDIDEQRLSRVYDNLKRLGMKATVKQGDGRYPSQWCGEQQFDRILLDAPCSATGVIRRHPDIKWLRRDRDIPELAQLQSEILDAIWPHLKTGGTLVYATCSVLPEENSLQIKAFLQRTADAELCETGTPEQPGKQNLPGAEEGDGFFYAKLIKK,5.642 ± 0.039 h,5.05 ± 1.1 h,5.17 ± 0.74 h,4.92 ± 0.25 h,2.88 ± 0.45 h,6.66 ± 1.9 h,12.4 ± 0.73 h,6.14 ± 0.58 h,10.9 ± 0.76 h,6.96 ± 0.51 h,12.7 ± 0.89 h,5.88 ± 1 h
MKKQTQLLSALALSVGLTLSASFQAVASIPGQVADQAPLPSLAPMLEKVLPAVVSVRVEGTASQGQKIPEEFKKFFGDDLPDQPAQPFEGLGSGVIINASKGYVLTNNHVINQAQKISIQLNDGREFDAKLIGSDDQSDIALLQIQNPSKLTQIAIADSDKLRVGDFAVAVGNPFGLGQTATSGIVSALGRSGLNLEGLENFIQTDASINRGNSGGALLNLNGELIGINTAILAPGGGSVGIGFAIPSNMARTLAQQLIDFGEIKRGLLGIKGTEMSADIAKAFNLDVQRGAFVSEVLPGSGSAKAGVKAGDIITSLNGKPLNSFAELRSRIATTEPGTKVKLGLLRNGKPLEVEVTLDTSTSSSASAEMITPALEGATLSDGQLKDGGKGIKIDEVVKGSPAAQAGLQKDDVIIGVNRDRVNSIAEMRKVLAAKPAIIALQIVRGNESIYLLMR,,6.47 ± 0.17 h,6.3328 ± 0.0043 h,5.56 ± 0.2 h,3.05 ± 0.14 h,6.305 ± 0.0077 h,10 ± 0.31 h,6.06 ± 0.2 h,11.7 ± 0.17 h,5.48 ± 0.15 h,10.6 ± 0.71 h,6.2 ± 0.32 h
MKKRIPTLLATMIATALYSQQGLAADLASQCMLGVPSYDRPLVQGDTNDLPVTINADHAKGDYPDDAVFTGSVDIMQGNSRLQADEVQLHQKEAPGQPEPVRTVDALGNVHYDDNQVILKGPKGWANLNTKDTNVWEGDYQMVGRQGRGKADLMKQRGENRYTILDNGSFTSCLPGSDTWSVVGSEIIHDREEQVAEIWNARFKVGPVPIFYSPYLQLPVGDKRRSGFLIPNAKYTTTNYFEFYLPYYWNIAPNMDATITPHYMHRRGNIMWENEFRYLSQAGAGLMELDYLPSDKVYEDEHPNDDSSRRWLFYWNHSGVMDQVWRFNVDYTKVSDPSYFNDFDNKYGSSTDGYATQKFSVGYAVQNFNATVSTKQFQVFSEQNTSSYSAEPQLDVNYYQNDVGPFDTRIYGQAVHFVNTRDDMPEATRVHLEPTINLPLSNNWGSINTEAKLLATHYQQTNLDWYNSRNTTKLDESVNRVMPQFKVDGKMVFERDMEMLAPGYTQTLEPRAQYLYVPYRDQSDIYNYDSSLLQSDYSGLFRDRTYGGLDRIASANQVTTGVTSRIYDDAAVERFNISVGQIYYFTESRTGDDNITWENDDKTGSLVWAGDTYWRISERWGLRGGIQYDTRLDNVATSNSSIEYRRDEDRLVQLNYRYASPEYIQATLPKYYSTAEQYKNGISQVGAVASWPIADRWSIVGAYYYDTNANKQADSMLGVQYSSCCYAIRVGYERKLNGWDNDKQHAVYDNAIGFNIELRGLSSNYGLGTQEMLRSNILPYQNTL,6.59 ± 0.56 h,6.39 ± 0.33 h,6.28 ± 0.42 h,6 ± 0.24 h,3.25 ± 0.27 h,6.269 ± 0.016 h,13.3 ± 0.19 h,6.7 ± 0.21 h,13 ± 0.44 h,6.34 ± 0.59 h,13.5 ± 0.86 h,6.76 ± 0.85 h
MKKRKTVKKRYVIALVIVIAGLITLWRILNAPVPTYQTLIVRPGDLQQSVLATGKLDALRKVDVGAQVSGQLKTLSVAIGDKVKKDQLLGVIDPEQAENQIKEVEATLMELRAQRQQAEAELKLARVTYSRQQRLAQTKAVSQQDLDTAATEMAVKQAQIGTIDAQIKRNQASLDTAKTNLDYTRIVAPMAGEVTQITTLQGQTVIAAQQAPNILTLADMSAMLVKAQVSEADVIHLKPGQKAWFTVLGDPLTRYEGQIKDVLPTPEKVNDAIFYYARFEVPNPNGLLRLDMTAQVHIQLTDVKNVLTIPLSALGDPVGDNRYKVKLLRNGETREREVTIGARNDTDVEIVKGLEAGDEVVIGEAKPGAAQ,,,6.45 ± 0.1 h,6.19 ± 0.26 h,3.07 ± 0.068 h,6.04 ± 0.16 h,12.54 ± 0.11 h,6.37 ± 0.067 h,13.5 ± 1.4 h,5.83 ± 0.37 h,12 ± 0.15 h,6.09 ± 0.067 h
MKKRVYLIAAVVSGALAVSGCTTNPYTGEREAGKSAIGAGLGSLVGAGIGALSSSKKDRGKGALIGAAAGAALGGGVGYYMDVQEAKLRDKMRGTGVSVTRSGDNIILNMPNNVTFDSSSATLKPAGANTLTGVAMVLKEYPKTAVNVIGYTDSTGGHDLNMRLSQQRADSVASALITQGVDASRIRTQGLGPANPIASNSTAEGKAQNRRVEITLSPL,5.47 h,6.78 ± 0.46 h,6.16 ± 0.47 h,5.3 ± 0.5 h,2.78 ± 0.1 h,5.45 ± 0.11 h,,5.81 ± 0.95 h,12.6 h,5.82 h,11.4 ± 0.82 h,
